Key:
[1] = system: SARS-CoV-2; assay: SARS-CoV-2 cytopathic effect inhibition by lactoferrin at various pH levels in Vero E6 cells; assay type: cell-based, SARS-CoV-2 (strain COV2019 Italy/INM11); conditions: for average neutralizing titer: lactoferrin 10 mg/mL
[2] = system: SARS-CoV-2; assay: Cyclodextrin testing: antiviral activity against SARS-CoV-2 in Vero E6 cells (CPE); assay type: cell-based; conditions: pH 7; lactoferrin alone 10 mg/mL, cyclodextrin alone 10 mg/mL, or lactoferrin 5 mg/mL + cyclodextrin 10 mg/mL
[3] = system: Vero cells; conditions: 10 mg/mL lactoferrin, incubated up to 72 hours
[4] = system: Vero E6 cells; conditions: control without virus, 10 mg/mL
[5] = system: SARS-CoV-2; conditions: patients with SARS-CoV-2, after oral administration; cited from earlier work

B1: lactoferrin (protein, UniProt P02788 20-710, looked up)
Lactotransferrin: GRRRSVQWCAVSQPEATKCFQWQRNMRKVRGPPVSCIKRDSPIQCIQAIAENRADAVTLDGGFIYEAGLAPYKLRPVAAEVYGTERQPRTHYYAVAVVKKGGSFQLNELQGLKSCHTGLRRTAGWNVPIGTLRPFLNWTGPPEPIEAAVARFFSASCVPGADKGQFPNLCRLCAGTGENKCAFSSQEPYFSYSGAFKCLRDGAGDVAFIRESTVFEDLSDEAERDEYELLCPDNTRKPVDKFKDCHLARVPSHAVVARSVNGKEDAIWNLLRQAQEKFGKDKSPKFQLFGSPSGQKDLLFKDSAIGFSRVPPRIDSGLYLGSGYFTAIQNLRKSEEEVAARRARVVWCAVGEQELRKCNQWSGLSEGSVTCSSASTTEDCIALVLKGEADAMSLDGGYVYTAGKCGLVPVLAENYKSQQSSDPDPNCVDRPVEGYLAVAVVRRSDTSLTWNSVKGKKSCHTAVDRTAGWNIPMGLLFNQTGSCKFDEYFSQSCAPGSDPRSNLCALCIGDEQGENKCVPNSNERYYGYTGAFRCLAENAGDVAFVKDVTVLQNTDGNNNEAWAKDLKLADFALLCLDGKRKPVTEARSCHLAMAPNHAVVSRMDKVERLKQVLLHQQAKFGRNGSDCPDKFCLFQSETKNLLFNDNTECLARLHGKTTYEKYLGPQYVAGITNLKKCSTSPLLEACEFLRK
notes: stock solution in water at 10 mg/mL
inhibitory effect on viral infection in Vero cells ([1]; cells pre-incubated with lactoferrin 0.313-10 mg/mL for one hour): showed an inhibitory effect
average neutralizing titer ([1]; pH 4): 452
average neutralizing titer ([1]; pH 7): 40
lactoferrin concentration of maximum inhibitory effect ([1]; pH 4, 5, and 6): 5 mg/mL
antiviral efficacy ([1]; pH 7): consistent low efficacy
inhibitory effect on viral infection ([1]; without the pre-incubation step, any pH): no inhibitory effect
antiviral activity (cytopathic effect) [2]: did not show antiviral activity
cellular cytotoxicity [3]: No cellular cytotoxicity
cytopathic effect on the cells [4]: neither the lactoferrin alone (10 mg/mL) or the cyclodextrin alone (10 mg/mL) had a cytopathic effect
time to reduced severity and duration of disease [5]: 4 to 5 days
